From the DeepSol protein solubility set

Test: soluble on expression in E. coli; label from the status in PepcDB or PDB records

Sequence | soluble on expression in E. coli
MSRTTPYRLDDQIGFILRQANQRYAALFANGIGNGLTPTQWAALVRLGETGPCPQNQLGRLTAMDAATIKGVVERLDKRGLIQRSADPDDGRRLLVSLSPAGRAELEAGLAAAREINRQALAPLSLQEQETLRGLLARLI | soluble
MSRTYDLASDVIRRVYERRIDAPAILDSASEFPNAAKFTNAWRDIRDEALGVHLGKVPRFHDIMPEQADISANDGLDWRMFVLKAYDMAVPENLARMPVLSRLLAECPEVKSAAISFLAPRKHIPSHRGPFRGIMRFHLGLVIPRQADGRPATIMMIDHQEKRITDGEGMLWDDTYPHEVMNNADETRIALLLDVWRPGMPWDMEMLSRLIVRGVQAGMRRRGVSFSGLEHHHHHH | soluble
MSSDAISLRAAGPGDLPGLLELYQVLNPSDPELTTQEAGAVFAAMLAQPGLTIFVATENGKPVATATLLIVPNLTRAARPYAFIENVVTLEARRGRGYGRTVVRHAIETAFGANCYKVMLLTGRHDPAVHAFYESCGFVQNKTGFQIRQD | soluble
MSSDHVFKYVIIGDRGVGKSNLLLRFIGKPFDSIHPSTLGIEFGFRNLEIDRKKVKLHVWDTCGQERFRSLVGSYYRHAIGALLVYDITSRESFYHLEHWLTDLQRLGDPDIVIVLIGNKSDLEADREVRKEEGEAFAREFGLIFMEISAKTNEYVEEAFVNSAHEIYRKLNFGIIKEICVKKKKKKMNIIIRSISGKEKACC | not soluble
MSSGDQKVKEMFIEQGLHVDWLVRAHTVNSIEGLVYLSEQRHKWAEADQKVIFRILQDYKNSDGELLPEHNPAAPINRKRGTLKTELETFYDVPQVRTLTCELLDMVKEEPSIWDKIRCVDFGCHQRMRQAWCSISLKLGGWGAIQHVHMLKQLYRKKRDLYNVQYLRSGREFEYCEKLSFLKDVLEMAKNDPLDKNIQLDEHLKTATPIIDFDAELLAAPAEIQQILREISEKIDKVTTSQSPGFLAEYLATCCNEVVKHRETLATAGLGDDFN | not soluble
MSSGLYSMEKKEFDKVLDLERVKPYGDTMNDGKVQLSFTLPLKNNERSAEAAKQIALKMGLEEPSVVMQQSLDEEFTFFVVYGNFVQSVNYNEIHVEAVNSEILSMEETDEYIKENIGRKIVVVGASTGTDAHTVGIDAIMNMKGYAGHYGLERYEMIDAYNLGSQVANEDFIKKAVELEADVLLVSQTVTQKNVHIQNMTHLIELLEAEGLRDRFVLLCGGPRINNEIAKELGYDAGFGPGRFADDVATFAVKTLNDRMNS | soluble
MSSHPPIRSYVLRQGYFSNAQRHAYESLLPRYGIPLTEEPVDLDSIFGRTAPGILEIGSGMGETTAEIARQHPEKDFIAIEVHAPGIGSLLGQIEKHRLTNLRIIPHDAKLVLQQMFTSESLDGIHIFFPDPWPKARHHKRRLIQPDFVSLLCDRLKPGGYLHIATDWEDYATHILHVLRSEERFVNTAVDYAARPAYRPLTKFEQRGMKLGHTIRDIIFTRTALEHHHHHH | not soluble
MSSKLKISLSCGDYDRTRALFDGRAPIEGCEVTAVPLEPEEAFHRAFRYHEYDVTEISMSSHMMTTARGDNEYIAIPAFLSRVFRHSGIYVRTDRDIDKPQDLRGKTIGVPEYQITANVWIRGILEDAYGVKPQDIKWRRGGIEEPGRGERAPIELPDGIDLQQIPDDKTLSDMLEAGEIDGYIGARAPSCFLRGAPNVGRLFNDYLKTEQDYFRETRIFPIMHMVGIRRSLVEQNPWLPVSVYKAFLKAKMLAVKELNEICHLAVTLPWMVHHYNAARELMGDDYWPYGLDANRHVIETFARYHYGQGLSRRLVKPEELFAASSLDLSKIMAGDPNSLEHHHHHH | not soluble
MSSPRSNKPKIVNGPGGYILQDVPHLIDYLPDLPTYPNPLQDNPAYSVVKQYFVHADDSVPEKVVVHKDGPRGVHFRRAGPRQKVYFESDEVHACIVTCGGLCPGLNTVIREVVSSLSYMYGVKRILGIDGGYRGFYAKNTIPLNSKVVNDIHKRGGTIIGTSRGGHDTNKIVDSIQDRGINQVYIIGGDGTQRGASVIFEEIRRRRLKVAVVGIPKTIDNDIPVIDKSFGFDTAVEEAQRAINAAHVEAESNENGIGFVKLMGRYSGYIAMYATLASRDVDCCLIPESPFYLEGEGGLFEFIERRLKDHGHMVIVLAEGAGQDLMCKSMESTPMDASGNKLLKDVGLWLSQSIKDHFKKNKMVMNLKYIDPTYMIRAVPSNASDNVYCTLLAQSAVHGAMAGYTGYTSGLVNGRQTYIPFYRITETQNNVVITDRMWARLLSSTNQPSFLGPKDTSEEKKELPETPLLDDGAVDIPPVTKEVTK | soluble
MSSQKVFGITGPVSTVGATAAENKLNDSLIQELKKEGSFETEQETANRVQVLKILQELAQRFVYEVSKKKNMSDGMARDAGGKIFTYGSYRLGVHGPGSDIDTLVVVPKHVTREDFFTVFDSLLRERKELDEIAPVPDAFVPIIKIKFSGISIDLICARLDQPQVPLSLTLSDKNLLRNLDEKDLRALNGTRVTDEILELVPKPNVFRIALRAIKLWAQRRAVYANIFGFPGGVAWAMLVARICQLYPNACSAVILNRFFIILSEWNWPQPVILKPIEDGPLQVRVWNPKIYAQDRSHRMPVITPAYPSMCATHNITESTKKVILQEFVRGVQITNDIFSNKKSWANLFEKNDFFFRYKFYLEITAYTRGSDEQHLKWSGLVESKVRLLVMKLEVLAGIKIAHPFTKPFESSYCCPTEDDYEMIQDKYGSHKTETALNALKLVTDENKEEESIKDAPKAYLSTMYIGLDFNIENKKEKVDIHIPCTEFVNLCRSFNEDYGDHKVFNLALRFVKGYDLPDEVFDENEKRPSKKSKRKNLLEHHHHHH | soluble
MSSQMKAFLNELQGNMEVVGEFFDNPEKVIRKFGIVGREKEALLIRDLNDMDDYALSIQNSVASPSGAHSSTCHFVRQDLQSA | not soluble
MSSQTILSVNNLSVSFTTNDGIVDAVKNVSFELQAGETLSIVGESGSGKSVSTNALMTLLPDNAIVHPDSSIMFEGESILDKTERQMQRIRGDRIGMIFQEPMTSLNPYMRVGIQVAEAMMCHRSVNQRKAKERVLELFDLVHLPNPQQAYDKYPHEFSGGQLQRIMIAMALINEPDILIADEPTTALDVTVQAEVLLLIKEIQAKMGMAILFITHDLGVVKHFADRVLVMCKGEVVEEGITEHLFSEPQHEYTKMLINSIPKGSKTPVDEKASELLNAEDIR | not soluble
MSSRGVTAPQGFVAAGATAGIKPSGNKDMALVVNQGPEFVGAAVFTRNRVVASPVKYTKKAVANGTLRAVLYNSGNANACNGVQGDKDVHEIVDYLASKLKVDPLDIAACSTGLIGEPLPVTMIKAGVDKLIPALGDNGGEAADSIMTTDTVAKETVVKCNGWTLGGMGKGVGMMAPSLATMLVCLTTDACVTQAQAHAALSKACDVTFNTLDIDGSTSTNDTVILLANGASGITPTESEFNDAVLQACADIADQLQADAEGVTKRVRITVTGTTTDSQALNAARTLGRDNLFKCAMFGSDPNWGRVLAAVGMADADMDPDNISVYFNDQPVCLQSGGTPEARQVDLSGIDIDVRVDLGTGGPGKAFVRTTDLSHQYVEINSAYSSLEHHHHHH | not soluble
MSSRQGGKMKPLKQKKKQQQDLDPEDIAFKEKQKADAAAKKALMANMKSGKPLVGGGIKKSGKK | soluble
MSSSSSSRIHNGEDVYEKAEEYWSRASQDVNGMLGGFEALHAPDISASKRFIEGLKKKNLFGYFDYALDCGAGIGRVTKHLLMPFFSKVDMEDVVEELITKSDQYIGKHPRIGDKFVEGLQTFAPPERRYDLIWIQWVSGHLVDEDLVDFFKRCAKGLKPGGCIVLKDNVTNHEKRLFDDDDHSWTRTEPELLKAFADSQLDMVSKALQTGFPKEIYPVKMYALKPQHTGFTNN | not soluble
MSSSTTDDDSCSYFFFRQACLIPTPSVPTHPSVSIKIYPPFAEFIDFGGASRHILTNNGTCRIVFKVKCSNNLVFKVSPVYAFLDPGATAELQVLRREGPPKHDKLIISLKEAKKGDKDPRVTFNDSTHTTHKHILPLLTRIVEEQ | not soluble
MSSTAVVPSAPGPGPGPSGGPGGGTEVIQVTNVSPSASSEQMRTLFGFLGKIDELRLFPPDDSPLPVSSRVCFVKFHDPDSAVVAQHLTNTVFVDRALIVVPYAEGVIPDETKALSLLAPANAVAGLLPGGGLLPTPNPLTQIGAVPLAALGAPALDPALAALGLPGTNLNSQSLAADQLLKLMSTVDPKLNHVAAGLVSPSLKSDTSSKEIEEAMKRVREAQSLISAAIEPDKKEEKRRHSRSRSRSRRRRTPSSSRHRRSRSRSRRRSHSKSRSRRRSKSPRRRRSHSRERGRRSRSTSKARD | soluble
MSSVAPSVRLFFALWPQEAVRKQLARLARRIADQCAGRCVRPENLHLTLAFIGEVDSSVVPILRQAGSAIHRTSFDLLLDKLHCWGKGSIIAAGVSQPCGELTVLVQDLRNQLSAAGVRYDTVKFVPHVTLVRNAKREPEQKHFPETIPPVAWAADRWSLVQSRPTPYGSAYQSFADWALASQDFDEHHRA | not soluble
MSSVKRSLKQEIVTQFHCSAAEGDIAKLTGILSHSPSLLNETSENGWTALMYAARNGHPEIVQFLLEKGCDRSIVNKSRQTALDIAVFWGYKHIANLLATAKGGKKPWFLTNEVEECENYFSKTLLDRKSEKRNNSDWLLAKESHPATVFILFSDLNPLVTLGGNKESFQQPEVRLCQLNYTDIKDYLAQPEKITLIFLGVELEIKDKLLNYAGEVPREEEDGLVAWFALGIDPIAAEEFKQRHENCYFLHPPMPALLQLKEKEAGVVAQARSVLAWHSRYKFCPTCGNATKIEEGGYKRLCLKEDCPSLNGVHNTSYPRVDPVVIMQVIHPDGTKCLLGRQKRFPPGMFTCLAGFIEPGETIEDAVRREVEEESGVKVGHVQYVACQPWPMPSSLMIGCLALAVSTEIKVDKNEIEDARWFTREQVLDVLTKGKQQAFFVPPSRAIAHQLIKHWIRINPNL | soluble
MSTCPIDPPALRAAFAGPLDPQHAEVLLSRYDQHASRLLDALHALYGQRADYASWLAQWLGEVGDIARQRPQALQTLDSTRHAGWFGQPHMLGYSAYADRFAGTLQGVAERVPYLQELGVRYLHLLPFLRARAGDNDGGFAVSDYGQVEPSLGSNDDLVALTSRLREAGISLCADFVLNHTADDHAWAQAARAGDARYLDYYHHFADRTVPDRYEATLGQVFPHTAPGNFTWVDDTAQWMWTTFYPYQWDLNWSNPAVFGDMALAMLRLANLGVEAFRLDSTAYLWKRIGTDCMNQSEAHTLLVALRAVTDIVAPAVVMKAQAIVPMTQLPPYFGSGVDEGHECHLAYHSTLMAAGWSALALQRGDILHNVIAHSPPLPRHCAWLSYVRCHDDIGWNVLQHEACGNAAQPPFSLRDVARFYANAVPGSYARGESFQSSGDGVHGTNGMAAALAGIQAAQEAGDAAALAVAVDRLVLLYAIALAMPGVPLIYMGDELAMVNDPGYRDDPHRQHEGRWLHRPAMDWQLAAQRHDAKSLSGTVYRRLRGLIRQRAALGALAADQALASIALNDPRVFALTRGDSFIALHNFSDQLLDVELAAIGVDGWTLLAIDDAIGGAAARGDGSIVLPPYGVRWLQRGTEHAPE | soluble
MSTLRVACVIPTYNGCQDLARLLDSLEIQSAPFDTLIVDSSSSDGTYELALARCANVLRIDSRDFNHGGTRQLMVERNADYDLYVFMTQDAYLEDAEGLARIVAPFADPQVGAVCGRQLPHLDASPLASHARLFNYPPTSQVKSLADVPALGIKTAFMSNSFSAYRREALMQVGGFPNHVILSEDMYVGAKMLLAGWKVAYEGSACCRHSHNYSLKEEFRRYFDIGVFHAREPWIRQAFGGAGGEGLRYVQSELRFLGPGRLGQWPGSLLRNAVKLFAYKLSQQERYLPLGLKRKLGMYKRYWDSPYALEHHHHHH | soluble
MSTLYHTCDKIEQRIIWIDCEMTGLDVEKQTLCEIALIVTDSELNTIATGPDIVIHQPKEVLDNMEEWPRNTFHENGLMEKIIASKYSMADAENEVIDFLKLHALPGKSPIAGNSIYMDRLFIKKYMPKLDKFAHYRCIDVSTIKGLVQRWYPDYKHPKKQCTHRAFDDIMESIAELKNYRESIFVKSTASSF | not soluble
